Measurements as given in PMC8809517, “Cofactor-independent RNA editing by a synthetic S-type PPR protein”.

Columns and labels:
Experiment in all cases: high-throughput RNA pulldown from lysate on Ni-NTA beads; HRP: 50 mM Tris pH 8, 150 mM NaCl, 1 mM beta-mercaptoethanol, 50 ug/ml BSA, 3 ug/ml yeast RNA, 0.5% heparin; ITC and FP: Tris pH 8, 200 mM KCl, 5% glycerol; MST: 50 mM Tris pH 8, 200 mM NaCl, 1 mM DTT, BSA, heparin, 0.05% Tween 20
Conditions in all cases: tags: N-terminal His-eGFP
[1] = molecular target: T1, GFP-9S library array, motif 4 ND N98C;D124C (synthetic construct, N98C;D124C)
T1 chain: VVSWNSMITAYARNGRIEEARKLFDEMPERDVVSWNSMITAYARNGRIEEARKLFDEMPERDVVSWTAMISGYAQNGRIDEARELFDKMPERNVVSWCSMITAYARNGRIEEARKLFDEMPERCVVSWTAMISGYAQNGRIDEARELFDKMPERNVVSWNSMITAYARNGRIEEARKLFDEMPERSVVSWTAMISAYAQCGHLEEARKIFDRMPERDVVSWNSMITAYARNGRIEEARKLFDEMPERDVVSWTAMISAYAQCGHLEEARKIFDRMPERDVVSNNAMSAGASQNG

[2] = molecular target: T2, GFP-9S library array, motif 4 ND D124E (synthetic construct, D124E)
T2 chain: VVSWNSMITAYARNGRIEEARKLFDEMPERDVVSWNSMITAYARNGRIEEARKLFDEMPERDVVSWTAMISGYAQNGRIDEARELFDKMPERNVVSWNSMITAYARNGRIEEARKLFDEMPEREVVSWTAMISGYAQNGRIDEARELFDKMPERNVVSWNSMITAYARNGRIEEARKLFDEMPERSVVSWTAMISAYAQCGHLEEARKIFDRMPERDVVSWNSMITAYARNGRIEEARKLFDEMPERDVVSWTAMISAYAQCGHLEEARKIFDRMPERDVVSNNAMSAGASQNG

[3] = molecular target: T3, GFP-9S library array, motif 4 ND D124L (synthetic construct, D124L)
T3 chain: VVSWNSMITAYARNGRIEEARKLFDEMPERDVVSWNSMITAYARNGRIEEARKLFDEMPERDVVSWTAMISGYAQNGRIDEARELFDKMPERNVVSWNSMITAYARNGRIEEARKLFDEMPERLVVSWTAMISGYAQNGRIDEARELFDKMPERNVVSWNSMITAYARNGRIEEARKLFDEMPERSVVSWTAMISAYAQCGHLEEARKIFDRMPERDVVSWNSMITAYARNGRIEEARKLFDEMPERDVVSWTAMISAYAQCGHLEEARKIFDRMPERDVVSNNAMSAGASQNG

[4] = molecular target: T4, GFP-9S library array, motif 4 ND N98S;D124T (synthetic construct, N98S;D124T)
T4 chain: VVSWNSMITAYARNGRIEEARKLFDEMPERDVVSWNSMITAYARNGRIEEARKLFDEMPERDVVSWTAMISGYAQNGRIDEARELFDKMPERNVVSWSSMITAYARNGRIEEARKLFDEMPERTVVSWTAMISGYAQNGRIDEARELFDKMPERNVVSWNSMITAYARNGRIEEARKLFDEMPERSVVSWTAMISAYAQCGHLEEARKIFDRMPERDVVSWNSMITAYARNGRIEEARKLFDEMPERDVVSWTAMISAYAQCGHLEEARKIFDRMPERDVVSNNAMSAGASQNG

[5] = molecular target: T5, GFP-9S library array, motif 4 ND N98M;D124T (synthetic construct, N98M;D124T)
T5 chain: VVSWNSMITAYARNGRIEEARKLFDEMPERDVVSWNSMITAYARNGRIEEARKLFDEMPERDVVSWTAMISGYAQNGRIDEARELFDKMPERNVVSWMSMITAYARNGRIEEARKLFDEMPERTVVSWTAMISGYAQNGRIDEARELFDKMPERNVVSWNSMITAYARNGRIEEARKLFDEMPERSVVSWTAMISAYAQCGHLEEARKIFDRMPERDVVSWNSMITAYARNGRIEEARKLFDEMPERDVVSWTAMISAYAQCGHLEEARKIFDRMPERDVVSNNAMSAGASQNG

Binder: AUUAAACGUGA (ssRNA) [IR-rpoA-A]
- Kd ([1]; label: 5' IRDye 800CW): 43.7 nM
- Kd ([2]; label: 5' IRDye 800CW): 139 nM
- Kd ([3]; label: 5' IRDye 800CW): 291 nM
- Kd ([4]; label: 5' IRDye 800CW): 72.3 nM
- Kd ([5]; label: 5' IRDye 800CW): 116 nM

Binder: AUUAGACGUGA (ssRNA) [Cy5-rpoA-G]
- Kd ([1]; label: 5' Cy5): 70.5 nM
- Kd ([2]; label: 5' Cy5): 276 nM
- Kd ([3]; label: 5' Cy5): 131 nM
- Kd ([4]; label: 5' Cy5): 291 nM
- Kd ([5]; label: 5' Cy5): 115 nM

Binder: AUUACACGUGA (ssRNA) [Cy5-rpoA]
- Kd ([1]; label: 5' Cy5): 264 nM
- Kd ([2]; label: 5' Cy5): 10.5 nM
- Kd ([3]; label: 5' Cy5): 105 nM
- Kd ([4]; label: 5' Cy5): 187 nM
- Kd ([5]; label: 5' Cy5): 124 nM

Binder: AUUAUACGUGA (ssRNA) [IR-rpoA-U]
- Kd ([1]; label: 5' IRDye 800CW): 243 nM
- Kd ([2]; label: 5' IRDye 800CW): 3.54 nM
- Kd ([3]; label: 5' IRDye 800CW): 96.6 nM
- Kd ([4]; label: 5' IRDye 800CW): 108 nM
- Kd ([5]; label: 5' IRDye 800CW): 109 nM
